Biological target: SARS-CoV-2 WT RBD (SARS-CoV-2, UniProt P0DTC2)
Test: BLI

B1: rabbit monoclonal antibody (RmAb) 1H1, IgG (antibody, V domains shown)
VH: QSLEESGGDLVKPGASLTLTCTASGFSFSSGYDMCWVRQAPGKGLEWIACIGTGSSGNIYYASWAKGRFTISKTSSTTVTLQMTSLTAADTATYFCARDDADYAGPDYFNLWGPGTLVTVSS
VL: DIVMTQTPASVSEPVGGTVTIKCQASESISNWLAWYQQKPGQPPKLLIYAAFTLASGVPSRFKGSGSGTQFTLTINGVECADAATYYCQQTYSSRDVDNVFGGGTEVVVK
Kd: 0.0898 nM

From article PMC10069731 (2023)
